Measured values taken from PMC5331858.

Legend:
[1] = biological target: CD4-Sho1-SH3-I49A (MYTH bait) (S. cerevisiae); assay: two-hybrid
[2] = biological target: CD4-Sho1-SH3-ΔAY (MYTH bait) (S. cerevisiae) (UniProt P40073); assay: two-hybrid
Sequence of UniProt P40073 (P40073 298-367, stated change not applied): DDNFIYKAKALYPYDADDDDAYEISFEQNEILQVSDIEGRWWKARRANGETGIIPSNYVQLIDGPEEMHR

Molecule	fold change relative to wildtype Sho1p SH3 (β-galactosidase, Miller units) [1] [fold]	fold change relative to wildtype Sho1p SH3 (β-galactosidase, Miller units) [2] [fold]
Fps1-N (N-terminal soluble domain of Fps1p, NubG MYTH prey) (from UniProt P23900 1-255) (domain or fragment)	0.2	0.3
NubG-Pbs2 (full-length Pbs2p MYTH prey) (natural protein) MEDKFANLSLHEKTGKSSIQLNEQTGSDNGSAVKRTSSTSSHYNNINADLHARVKAFQEQRALKRSASVGSNQSEQDKGSSQSPKHIQQIVNKPLPPLPVAGSSKVSQRMSSQVVQASSKSTLKNVLDNQETQNITDVNINIDTTKITATTIGVNTGLPATDITPSVSNTASATHKAQLLNPNRRAPRRPLSTQHPTRPNVAPHKAPAIINTPKQSLSARRGLKLPPGGMSLKMPTKTAQQPQQFAPSPSNKKHIETLSNSKVVEGKRSNPGSLINGVQSTSTSSSTEGPHDTVGTTPRTGNSNNSSNSGSSGGGGLFANFSKYVDIKSGSLNFAGKLSLSSKGIDFSNGSSSRITLDELEFLDELGHGNYGNVSKVLHKPTNVIMATKEVRLELDEAKFRQILMELEVLHKCNSPYIVDFYGAFFIEGAVYMCMEYMDGGSLDKIYDESSEIGGIDEPQLAFIANAVIHGLKELKEQHNIIHRDVKPTNILCSANQGTVKLCDFGVSGNLVASLAKTNIGCQSYMAPERIKSLNPDRATYTVQSDIWSLGLSILEMALGRYPYPPETYDNIFSQLSAIVDGPPPRLPSDKFSSDAQDFVSLCLQKIPERRPTYAALTEHPWLVKYRNQDVHMSEYITERLERRNKILRERGENGLSKNVPALHMGGL	–	0.5
